Drawing on US20030008820A1, this text covers fold activity in promoting SMC proliferation compared to wild-type FGF2, molar concentration required to achieve half maximal proliferation of SMC ([3H] thymidine incorporation, no chlorate) and proliferation of chlorate-treated (HLGAG-depleted) SMC, percent of full proliferation for 2 substances.

This experiment deals with FGFR on smooth muscle cells (SMC) isolated from bovine aorta (bovine). The experiment can be described thus: cell-based or functional assay.

Substance “dFGF2, tandemly-linked dimeric FGF2, as purified with N-terminal His tag and C-terminal T7 tag (ligand)” registered a fold activity in promoting SMC proliferation compared to wild-type FGF2 of 4.5 fold; a molar concentration required to achieve half maximal proliferation of SMC ([3H] thymidine incorporation, no chlorate) of 60 pM; a proliferation of chlorate-treated (HLGAG-depleted) SMC, percent of full proliferation of 80%.
“Recombinant human wild-type FGF2 (ligand)”: the molar concentration required to achieve half maximal proliferation of SMC ([3H] thymidine incorporation, no chlorate) is 270 pM.
